The source of these data is the RNAGym collection of RNA variant scans (doi:10.1093/nar/gkz1192).

B1: CPEB3 Ribozyme (parent)
chain: UAACAGGGGGCCACAGCAGAAGCGUUCACGUCGCAGCCCCUGUCAGAUUCUGGUGAAUCUGCGAAUUCUGCUGUAUAUCUC

Variants of B1 are the subject of this series. The experiment in a line: self-cleavage, relative activity (ratio to wild type); higher = more cleavage; in vitro, sequencing. Put shortly:
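Barcoded CPEB3 ribozyme mutants, produced by rounds of error-prone PCR, self-cleaved while being transcribed with T7 RNA polymerase for 5 hours at 37°C and during a subsequent 15 min DNase I step before EDTA was added. Sequencing of template-switched cDNA on Illumina gave cleaved and total reads, and DNA sequencing assigned barcodes to variants. Each variant's relative activity is its cleaved/total read fraction divided by the unmutated ribozyme's fraction, averaged across three batches. A variant needed a minimum of 5 reads.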
On to C17U U72G, for which the self-cleavage amounted to 0.4. As for A35U C71G, the figure is 0.15; as for U1C G6A, 0.3. G36A C39G: the self-cleavage was 0.16. The value for G7C C50A was 0.29. For the variant A21G A45G, the self-cleavage was 0.44. Consider A5G U48G, for which the self-cleavage was determined as 0.1. The value for C17G C79U was 0.27; that for G30C A45C was 0.34.

As for U43A G73U, the self-cleavage stood at 1.26. Regarding G30U G42A, the self-cleavage was 0.23. As for C34U A47C, the figure is 0.41.

G36A U72C: the self-cleavage is 0.25. As for U60A C68G, the figure is 0.43. The value for C27A U67A was 0.18. As for U26A U43C, the figure is 0.29; as for A18C C29U, 0.31; as for A18G G22A, 0.24.

As for A18G G22U, the self-cleavage was found to be 0.22. On to C17G C34G, for which the self-cleavage was 0.36. On to U43A U51G, for which the self-cleavage came out at 1.15. Consider A18U, for which the self-cleavage worked out at 0.4.

As to U25C C81G, the self-cleavage stood at 0.22.

With G9C, the self-cleavage was found to be 0.24.

C11A U31C: the self-cleavage was found to be 0.23. As to C11U A20U, the self-cleavage worked out at 0.28.

As to A13G G70A, the self-cleavage turned out to be 0.26. As for G9C U67C, the figure is 0.11; as for C40A U48C, 0.18; as for A28C C38U, 0.41. The value for U51G U60A was 0.78. As for G16U A56G, the figure is 0.28; as for A5C U43G, 0.38; as for G52U U66C, 0.54.

Regarding G9A G42A, the self-cleavage was determined as 0.3. For the variant G7A G73A, the self-cleavage was 0.48.

For the variant G19U U48A, the self-cleavage turned out to be 0.2. The value for A47U U66C was 0.36; that for U41A A75C was 0.31. As for G8A C40U, the figure is 0.14; as for A47U U48C, 0.26; as for U49C U76A, 0.49. Consider G55U U67C, for which the self-cleavage was 0.21.

For A15C C29U, the self-cleavage turned out to be 0.22. On to A28C C71G, for which the self-cleavage turned out to be 0.08. Take U1C A18C: the self-cleavage was determined as 1.09. For the variant C39G U72C, the self-cleavage is 0.3. As for U60C G63C, the self-cleavage was 0.54. As for C44A U54C, the figure is 0.36; as for C12A A28G, 0.59.

With G30A U48G, the self-cleavage came to 0.14. As for C11G U26A, the self-cleavage was 0.34. As for C14U C39A, the figure is 0.55; as for A2G C17U, 0.56. The value for G53U A65U was 0.25. For the variant A56G U67A, the self-cleavage was 0.46. As to A20G U69A, the self-cleavage came out at 0.34. Consider A45G U49G, for which the self-cleavage was 0.1.

With G8A U74A, the self-cleavage is 0.25. As for U26G G73A, the figure is 0.89; as for A5U C39U, 0.95. Regarding G8U G19C, the self-cleavage turned out to be 0.23. G36U U78C: the self-cleavage was 0.17. As for U72G A77U, the figure is 0.71; as for U43G A45U, 0.18. As for U43A A65U, the self-cleavage came to 0.57.

In the case of A13C C32A, the self-cleavage stood at 0.29. As for A15G A45U, the figure is 0.44; as for A3C U43C, 0.81. Turning to A47C A64G, the self-cleavage amounted to 0.26. As for C50U G61A, the figure is 0.55; as for G6A U51C, 0.49; as for U43A U49A, 0.8. Turning to G7U U48A, the self-cleavage worked out at 0.07.

Regarding U41C U66A, the self-cleavage was determined as 0.62. Turning to C14G C40G, the self-cleavage came out at 0.1. The value for U51C A56G was 0.84; that for A5G C23U was 0.36. As to A35G U76G, the self-cleavage worked out at 1.49. As to A28U U31A, the self-cleavage is 0.41. The value for U67C C68U was 0.46. The value for U51C A75C was 1.21; that for C34U G63U was 0.38; that for C12G A13U was 1.14. For the variant G36C A47G, the self-cleavage was 0.15.

With C38U U41G, the self-cleavage is 0.42. For C4U U51C, the self-cleavage was found to be 1.16. The value for U41G C71G was 0.33; that for A13G A20U was 0.28. Take C71U U72C: the self-cleavage was 1.02.

With C29A U69C, the self-cleavage worked out at 0.18. Turning to U31C A45C, the self-cleavage was 0.22. In the case of A13G A56G, the self-cleavage came out at 0.73. The value for C68U was 1.06. The value for C11G A20G was 0.56. In the case of A18G U78G, the self-cleavage was determined as 0.53. As for U48G A64U, the figure is 0.17. As for A15G U51C, the figure is 0.74; as for U54C U74G, 1.39.

For A2G A56G, the self-cleavage stood at 0.5. The value for A18U C34A was 0.23. In the case of C32G U41A, the self-cleavage was 0.32. As to G55A U74A, the self-cleavage worked out at 1.18. As for C23A U72C, the figure is 0.41. Turning to A47C A57G, the self-cleavage is 0.5.

Take C27U A65C: the self-cleavage worked out at 0.1. As for G10U U66A, the figure is 0.18; as for U31G U66C, 0.37; as for C12U G63C, 1.26. As for C62U U72A, the figure is 0.4. C23U U41C: the self-cleavage is 0.27. C29G C34G: the self-cleavage was 0.22.

In the case of A18G C62U, the self-cleavage came out at 0.32.

Regarding G53C U69C, the self-cleavage came to 0.64.

As for C4U A13C, the self-cleavage stood at 1.21.

Regarding A35G U58C, the self-cleavage was found to be 1.23.

Turning to A3C C44G, the self-cleavage worked out at 0.84. Regarding U43A A77G, the self-cleavage stood at 1.2.

As to U26A U48G, the self-cleavage stood at 0.37. Consider A3G A45G, for which the self-cleavage came to 0.78. As for G73A U80A, the figure is 1.25; as for G55U, 1.02; as for G24U U67A, 0.16. Take A21U U31G: the self-cleavage was 0.13. As for C11G G63U, the figure is 0.66. Turning to U54G U58A, the self-cleavage is 0.2. In the case of G24A A56U, the self-cleavage stood at 0.37. As for A47U U69C, the self-cleavage stood at 0.33.

For U1A A75U, the self-cleavage stood at 1.14. Take C38A A56U: the self-cleavage was determined as 0.27.

Take C12U C44A: the self-cleavage amounted to 0.94. As for A3G A18G, the figure is 0.73.

For the variant C12A U67A, the self-cleavage was found to be 0.69. As to A20C C27A, the self-cleavage was 0.37. For the variant C12U U31C, the self-cleavage stood at 1.28. On to G46A U48C, for which the self-cleavage is 0.26.

On to U54C A56U, for which the self-cleavage stood at 0.52. For A2U U51A, the self-cleavage stood at 1.17. On to A56U U66C, for which the self-cleavage was 0.32. For the variant U1A U43A, the self-cleavage was found to be 1.08. Consider A64G U69G, for which the self-cleavage was 0.44.

On to C23G A28U, for which the self-cleavage was 0.23.

For A18G U67A, the self-cleavage came to 0.31. On to C11U U67A, for which the self-cleavage worked out at 0.36. The value for C23U C34U was 0.36; that for A21U C50U was 0.4. Consider G9U A20G, for which the self-cleavage is 0.34.

In the case of C39A C81G, the self-cleavage stood at 0.16. As to G16A A28G, the self-cleavage is 0.25. The value for A21G C32U was 0.22; that for A45G C68U was 0.88. Turning to A2U A45G, the self-cleavage was determined as 0.85. As for U25A C29U, the self-cleavage was 0.22.

Regarding U51C U72A, the self-cleavage was found to be 0.75. The value for U41C U74G was 1.21. As for A20C U49A, the figure is 0.16; as for U26G U51G, 0.33; as for A35U G63A, 0.27. On to G6U U49C, for which the self-cleavage came to 0.22.

For G55A U58C, the self-cleavage worked out at 0.27.

As to G7A U43C, the self-cleavage was determined as 0.21. On to A20G A45U, for which the self-cleavage came out at 0.3.

For U31A U43G, the self-cleavage was 0.33. Regarding A21C U69A, the self-cleavage came to 0.17.

For A13U A75U, the self-cleavage is 1.28. As for U49A G73A, the figure is 1.28; as for G8A A35G, 0.5.
